{
  "source": "paper PMC2500142",
  "target": "GFP-actin (UniProt P60709)",
  "assay": "dual color fluorescence cross-correlation spectroscopy",
  "data": [
    {"substance": "DsRed-AQP2 (from UniProt P41181 1-271) (natural protein)", "values": [
      {"measurement": "relative cross-correlation amplitude ([Gc(0)-1]/[Gr(0)-1]), apical membrane", "result": 0.33},
      {"measurement": "relative cross-correlation amplitude ([Gc(0)-1]/[Gr(0)-1]), subapical region", "result": 0.4}
    ]}
  ]
}
